# Assay results reported in patent US11707511B2, “Vaccine compositions and methods of using the same” (The Board of Supervisors of Louisiana State University and …, priority 2017, dated 2023).
# B1: 1D4H5: IgG1 mAb of hybridoma 1D4H5, specific for GPV-M1; VH SEQ ID NO: 64, VL SEQ ID NO: 66 (antibody, V domains shown)
# VH: MYLGLNCVFIVFLLKGVQSEVKLEESGGGLVQPGGSMKLSCVASGFTFSNYWMNWVRQSPEKGLEWVAEIRLKSNNYATHYAESVKGRFTISSDDSKSSVYLQMNNLRAEDTGIYYCSTGNYWGQGTTLTVSS
# VL: MDFQMQIISLLLISVTVIVSNGEIVLTQSPTTMAASPGEKITITCSASSTISSNYLHWYQQKPGFSPKLLIYRTSNLASGVPARFSGSGSGTSYSLTIGTMEAEDVATYYCQQGSTISRTFGSGTKLEIK
# B2: 10E7E2: IgG1 mAb of hybridoma 10E7E2, specific for GPV-P3; VH SEQ ID NO: 72, VL SEQ ID NO: 74 (antibody, V domains shown)
# VH: QVQLKQSGPGLVQPSQSLSITCTVSGFSLTSYGVHWVRQSPGKGLEWLGVIWSGGTTDYNAAFISRLSISKDNSKSQVFFKMNSLQANDTAIYYCARGGHRGFAYWGQGTLVTVSA
# VL: DIVMTQSHKFMSTSVGDRVSITCKASQDVGTAVAWYQQKPGQSPKLLIYWASTRHTGVPDRFTGSGSGTDFTLTISNVQSEDLADYFCQQYSSYPLTFGAGTKLELK
# Key:
# C. tropicalis ATCC 28775 = test: Passive transfer of mAbs, neutropenic mouse model of disseminated candidiasis by C. tropicalis; type: in vivo; details: for Protection against C. tropicalis / Protection against C. tropicalis (grade word): Table 6, neutropenic BALB/c mice, mAb i.p. 4 h before 1×10^7 C. tropicalis i.v.; for Protection against Candida spp in mouse model: Against C. tropicalis / Protection against Candida spp in mouse model: Against C. tropicalis (grade word): Table 9
# Excerpt: Induction of neutropenia. Although C. albicans remains the dominant disease-causing pathogen of this genus, rates of infections caused by non-albicans Candida (NAC) species are increasing. Among these Candida species, only C. albicans is pathogenic in the normal mouse model. To test vaccine and mAbs against non-albicans Candida spp, we have developed neutropenic murine models of disseminated infection by C. glabrata, C. tropicalis, and C. parapsilosis. Before challenge, BLAB/c mice were made neutropenic by intraperitoneal receipt of a 200 mg/kg dose of cyclophosphamide (CY; Sigma-Aldrich) at day −3. The i.p. injection (150 mg/kg) is repeated every 10 days after infection (i.e., at days 10, 20, 30, and 40 post-infection) in order to maintain low neutrophil counts for the entire experimental procedure. […] To evaluate leukocytopenia in these mice, blood samples were collected from tail veins 3 days after each CY or saline injection (n=10 in each group). Total leukocyte and differential cell counts were determined on a hemocytometer and by Wright-Giemsa staining. Body weights of the mice were also measured and compared for 14 days after the first CY or saline injection (n=10 in each group).
# Fungal challenge dose and assessment ofprotection. Although C. albicans remains the dominant disease-causing pathogen of this genus, rates of infections caused by non-albicans Candida (NAC) species are increasing (18). Among these Candida species, only C. albicans is pathogenic in the normal mouse model (19,20). We have developed neutropenic murine models of disseminated infection by C. glabrata, C. tropicalis, and C. parapsilosis. […] In details, mice of different experimental groups (five mice per group) were intravenously infected with 5×10^6 viable C. parapsilosis ATCC MYA-4646 (A), 1×108 C. glabrata ATCC 2001 cells (B) and 1×107 C. tropicalis ATCC 28775 cells (C) in 0.1 ml DPBS. As controls, immunocompetent mice were challenged with the same dose of each Candida strain tested.
# Passive transfer of MAbs by intraperitoneal (i.p.) route. The preventive effect of peptide-specific mAbs listed in Table 3 and Table 4 in naïve mice was examined by passive transfer experiments. Each mAb was appropriately diluted in DPBS to give a 40,000-100,000 ELISA titer against each corresponding specific peptide coated on the plate. For testing, mice received 0.5 ml of each mAb or 1 ml of two mAbs in combination (0.5 ml of each) intraperitoneally. Table 6 and Table 7 have listed all the peptide-specific mAb combinations that have been tested, as well as the protective efficacy of each mAb cocktail as compared to single mAb treatment. The negative control materials tested in mice were single mAb or DPBS. Control mice received 0.5 ml of the DPBS diluents or single mAb treatment. For each condition, 6- to 8-week-old female BALB/c mice (NCI) were given 0.5 ml of test mAb, or 1 ml two mAb cocktails or control materials intraperitoneally, followed 4 h later by 0.1 ml intravenously of defined lethal dose of yeast cells per milliliter of DPBS. Mice were divided into groups with five mice each and three independent experiments were carried out. In some experiments, mice were given the same dose of mAbs or control materials on every other day post-challenge for two weeks, as compared to the protective efficacy of mAb in combinations. All mice were sacrificed on day 50. For animal groups that were challenged non-albicans candida species, determined optimal challenge doses were applied for each candida strain.
# The preventive effect of each universal peptide-specific mAb was examined by passive transfer experiments. Each mAb was appropriately diluted in DPBS (0.2 μg/μl) to give a 100,000 ELISA titer against each universal peptide coated on the plate. For testing, 5 mice of each tested group received 0.5 ml of each mAb intraperitoneally. The negative control materials tested in mice were mAbs absorbed with C. albicans yeast cells (3153A) and DPBS. […]
# C. auris = test: Passive transfer of mAbs in cyclophosphamide-immunosuppressed B6.129X1Elane mice, disseminated infection by C. auris; type: in vivo, Candida auris; details: 2×108 C. auris i.v.
# Method: An immunocompromised murine model of disseminated infection by C. auris was developed. To induce immunosuppression, Jackson B6.129X1Elane mice received a 200 mg/kg dose of cyclophosphamide (CY) by i.p. on day −3. Prolonged immunosuppression was maintained for 30 days by giving each animal a 200 mg/kg dose of CY by i.p. every 10 days after infection. On day 0, mice of different experimental groups were intravenously infected with 2×10^8 viable C. auris yeast cells.
# The preventive effect of peptide-specific mAbs, for example 7H6A2 and 1D4H5, and combinations thereof, for example 7H6A2+1D4H5, was examined by passive transfer experiments. Each mAb was appropriately diluted in DPBS to give a 40,000-100,000 ELISA titer against each corresponding specific peptide coated on the plate. For testing, mice received 0.5 ml of each mAb or 1 ml of two mAbs in combination (0.5 ml of each) intraperitoneally. Control mice received 0.5 ml of the DPBS diluents.
# Protective mAbs protect immunocompromised mice against disseminated infection by Candida auris: The possibility of using passive mAb immunotherapy in immunocompromised mice against disseminated candidiasis by C. auris. The protective effect of mAb 7H6A2, 1D4H5 or these two mAbs in combination against the disease in immunocompromised mice was examined by passive transfer experiments (FIG. 14). Mice received either mAb 7H6A2 or 1D4H5 or the two mAbs in combination had reduced CFUs in kidneys (FIG. 14A) and in brains (FIG. 14B) as compared with control mice.
Molecule,Protection against C. tropicalis (C. tropicalis ATCC 28775),Protection against C. tropicalis (grade word) (C. tropicalis ATCC 28775),Protection against Candida spp in mouse model: Against C. tropicalis (C. tropicalis ATCC 28775),Protection against Candida spp in mouse model: Against C. tropicalis (grade word) (C. tropicalis ATCC 28775),CFUs in kidneys as compared with control mice (C. auris; FIG. 14A),CFUs in brains as compared with control mice (C. auris; FIG. 14B)
B1,(60-80%),High,(60-80%),High,reduced CFUs,reduced CFUs
B2,(60-70%),High,(60-70%),High,–,–
